# B1: S. cerevisiae Abp1 (full length; SH3 domain 535-592 mutated) / Hua2 (parent complex)
# chain 1: MALEPIDYTTHSREIDAEYLKIVRGSDPDTTWLIISPNAKKEYEPESTGSSFHDFLQLFDETKVQYGLARVSPPGSDVEKIIIIGWCPDSAPLKTRASFAANFAAVANNLFKGYHVQVTARDEDDLDENELLMKISNAAGARYSIQTSSKQQGKASTPPVKKSFTPSKSPAPVSKKEPVKTPSPAPAAKISSRVNDNNDDDDWNEPELKERDFDQAPLKPNQSSYKPIGKIDLQKVIAEEKAKEDPRLVQKPTAAGSKIDPSSDIANLKNESKLKRDSEFNSFLGTTKPPSMTESSLKNDDDKVIKGFRNEKSPAQLWAERKAKQNSGNAETKAEAPKPEVPEDEPEGEPDVKDLKSKFEGLAASEKEEEEMENKFAPPPKKSEPTIISPKPFSKPQEPVKAEEAEQPKTDYKKIGNPLPGMHIEADNEEEPEENDDDWDDDEDEAAQPPLPSRNVASGAPVQKEEPEQEEIAPSLPSRNSIPAPKQEEAPEQAPEEEIEEEAEEAAPQLPSRSSAAPPPPPRRATPEKKPKENPWATAEYDYDAAEDNELTFVENDKIINIEFVDDDWWLGELEKDGSKGLFPSNYVSLGN
# chain 2: MQQTKFGKMYLDHDSVVEYSEDEIVEADRITLGYKKRLSMIENQMRHLLEDFSLDVQQIEPILADLQKYYDAFLQLLQKRNKSLQCKRSTHQPVPSPMNSQTSTNAKVNLSGKLMKFQLNSVQKFDEENILRILQNKIEFEHYFQIDKGKKQKVLLLAVYQCLNGPTRLHKVLNIEGIIHNNSIRTILGKQVSSSKWTVFLYDVKLVLLAHRQDVPNLETSKMIVRYGDLFPCALYFKDHTAY
# Variants of: B1
# Experiment: DHFR protein-fragment complementation in yeast (Abp1-DHFR F[1,2] x partner-DHFR F[3]), deep mutational scanning, second methotrexate selection vs reference; S. cerevisiae, DHFR-PCA selection in liquid with methotrexate at 30 C, two 72 h selections (the score uses the second); reference = the pre-selection culture
row,Variant,screen value
1,chain 1 MALEPIDYTTHSREIDAEYLKIVRGSDPDTTWLIISPNAKKEYEPESTGSSFHDFLQLFDETKVQYGLARVSPPGSDVEKIIIIGWCPDSAPLKTRASFAANFAAVANNLFKGYHVQVTARDEDDLDENELLMKISNAAGARYSIQTSSKQQGKASTPPVKKSFTPSKSPAPVSKKEPVKTPSPAPAAKISSRVNDNNDDDDWNEPELKERDFDQAPLKPNQSSYKPIGKIDLQKVIAEEKAKEDPRLVQKPTAAGSKIDPSSDIANLKNESKLKRDSEFNSFLGTTKPPSMTESSLKNDDDKVIKGFRNEKSPAQLWAERKAKQNSGNAETKAEAPKPEVPEDEPEGEPDVKDLKSKFEGLAASEKEEEEMENKFAPPPKKSEPTIISPKPFSKPQEPVKAEEAEQPKTDYKKIGNPLPGMHIEADNEEEPEENDDDWDDDEDEAAQPPLPSRNVASGAPVQKEEPEQEEIAPSLPSRNSIPAPKQEEAPEQAPEEEIEEEAEEAAPQLPSRSSAAPPPPPRRATPEKKPKENPWATAEYDYDAAEDNELTFVENDKIRNIEFVDDDWWLGELEKDGSKGLFPSNYVSLGN [chain 1 I560R],"0.102 DMS score: mean over two replicates of log2(f_test/f_ref + 0.5)/ln 2, minus the synonymous-codon median (not a log2 …"
2,chain 1 MALEPIDYTTHSREIDAEYLKIVRGSDPDTTWLIISPNAKKEYEPESTGSSFHDFLQLFDETKVQYGLARVSPPGSDVEKIIIIGWCPDSAPLKTRASFAANFAAVANNLFKGYHVQVTARDEDDLDENELLMKISNAAGARYSIQTSSKQQGKASTPPVKKSFTPSKSPAPVSKKEPVKTPSPAPAAKISSRVNDNNDDDDWNEPELKERDFDQAPLKPNQSSYKPIGKIDLQKVIAEEKAKEDPRLVQKPTAAGSKIDPSSDIANLKNESKLKRDSEFNSFLGTTKPPSMTESSLKNDDDKVIKGFRNEKSPAQLWAERKAKQNSGNAETKAEAPKPEVPEDEPEGEPDVKDLKSKFEGLAASEKEEEEMENKFAPPPKKSEPTIISPKPFSKPQEPVKAEEAEQPKTDYKKIGNPLPGMHIEADNEEEPEENDDDWDDDEDEAAQPPLPSRNVASGAPVQKEEPEQEEIAPSLPSRNSIPAPKQEEAPEQAPEEEIEEEAEEAAPQLPSRSSAAPPPPPRRATPEKKPKENPWATAEYDYDAAEDNELTFVENDKIINIEFVDDDWWLGELEKDGSKGLFPSNYVSLLN [chain 1 G591L],"-0.124 DMS score: mean over two replicates of log2(f_test/f_ref + 0.5)/ln 2, minus the synonymous-codon median (not a log2 …"
3,chain 1 MALEPIDYTTHSREIDAEYLKIVRGSDPDTTWLIISPNAKKEYEPESTGSSFHDFLQLFDETKVQYGLARVSPPGSDVEKIIIIGWCPDSAPLKTRASFAANFAAVANNLFKGYHVQVTARDEDDLDENELLMKISNAAGARYSIQTSSKQQGKASTPPVKKSFTPSKSPAPVSKKEPVKTPSPAPAAKISSRVNDNNDDDDWNEPELKERDFDQAPLKPNQSSYKPIGKIDLQKVIAEEKAKEDPRLVQKPTAAGSKIDPSSDIANLKNESKLKRDSEFNSFLGTTKPPSMTESSLKNDDDKVIKGFRNEKSPAQLWAERKAKQNSGNAETKAEAPKPEVPEDEPEGEPDVKDLKSKFEGLAASEKEEEEMENKFAPPPKKSEPTIISPKPFSKPQEPVKAEEAEQPKTDYKKIGNPLPGMHIEADNEEEPEENDDDWDDDEDEAAQPPLPSRNVASGAPVQKEEPEQEEIAPSLPSRNSIPAPKQEEAPEQAPEEEIEEEAEEAAPQLPSRSSAAPPPPPRRATPEKKPKENPWATAEYDYDAAEDNELTFVENDKIINIEFVDDDWWLGELEKDGSKGLFPNNYVSLGN [chain 1 S585N],"-0.135 DMS score: mean over two replicates of log2(f_test/f_ref + 0.5)/ln 2, minus the synonymous-codon median (not a log2 …"

# Continued, values first:
row,screen value,Variant
1,"0.298 DMS score: mean over two replicates of log2(f_test/f_ref + 0.5)/ln 2, minus the synonymous-codon median (not a log2 …",chain 1 MALEPIDYTTHSREIDAEYLKIVRGSDPDTTWLIISPNAKKEYEPESTGSSFHDFLQLFDETKVQYGLARVSPPGSDVEKIIIIGWCPDSAPLKTRASFAANFAAVANNLFKGYHVQVTARDEDDLDENELLMKISNAAGARYSIQTSSKQQGKASTPPVKKSFTPSKSPAPVSKKEPVKTPSPAPAAKISSRVNDNNDDDDWNEPELKERDFDQAPLKPNQSSYKPIGKIDLQKVIAEEKAKEDPRLVQKPTAAGSKIDPSSDIANLKNESKLKRDSEFNSFLGTTKPPSMTESSLKNDDDKVIKGFRNEKSPAQLWAERKAKQNSGNAETKAEAPKPEVPEDEPEGEPDVKDLKSKFEGLAASEKEEEEMENKFAPPPKKSEPTIISPKPFSKPQEPVKAEEAEQPKTDYKKIGNPLPGMHIEADNEEEPEENDDDWDDDEDEAAQPPLPSRNVASGAPVQKEEPEQEEIAPSLPSRNSIPAPKQEEAPEQAPEEEIEEEAEEAAPQLPSRSSAAPPPPPRRATPEKKPKENPWARAEYDYDAAEDNELTFVENDKIINIEFVDDDWWLGELEKDGSKGLFPSNYVSLGN [chain 1 T538R]
2,"-0.96 DMS score: mean over two replicates of log2(f_test/f_ref + 0.5)/ln 2, minus the synonymous-codon median (not a log2 …",chain 1 MALEPIDYTTHSREIDAEYLKIVRGSDPDTTWLIISPNAKKEYEPESTGSSFHDFLQLFDETKVQYGLARVSPPGSDVEKIIIIGWCPDSAPLKTRASFAANFAAVANNLFKGYHVQVTARDEDDLDENELLMKISNAAGARYSIQTSSKQQGKASTPPVKKSFTPSKSPAPVSKKEPVKTPSPAPAAKISSRVNDNNDDDDWNEPELKERDFDQAPLKPNQSSYKPIGKIDLQKVIAEEKAKEDPRLVQKPTAAGSKIDPSSDIANLKNESKLKRDSEFNSFLGTTKPPSMTESSLKNDDDKVIKGFRNEKSPAQLWAERKAKQNSGNAETKAEAPKPEVPEDEPEGEPDVKDLKSKFEGLAASEKEEEEMENKFAPPPKKSEPTIISPKPFSKPQEPVKAEEAEQPKTDYKKIGNPLPGMHIEADNEEEPEENDDDWDDDEDEAAQPPLPSRNVASGAPVQKEEPEQEEIAPSLPSRNSIPAPKQEEAPEQAPEEEIEEEAEEAAPQLPSRSSAAPPPPPRRATPEKKPKENPWATAEYDYDAAEDNELTFVENDKIINIEFVDDDWWLGELEKDMSKGLFPSNYVSLGN [chain 1 G578M]

# Source: article PMC7954794 (2021)
